Reference: PMC2033760, “Interleukin 1 modulates growth of human renal carcinoma cells in vitro” (British Journal of Cancer, 1995)

Target: T1, IL-1 receptor type I (human (endogenous in A-498), UniProt P14778 18-569)
T1 construct: In the functional row on Caki-2 cells the endogenous receptor of those cells is meant; it was not detected there directly; also called IL-1 receptor type I (80 kDa); source: endogenous, on A-498 cells
T1 sequence (looked up): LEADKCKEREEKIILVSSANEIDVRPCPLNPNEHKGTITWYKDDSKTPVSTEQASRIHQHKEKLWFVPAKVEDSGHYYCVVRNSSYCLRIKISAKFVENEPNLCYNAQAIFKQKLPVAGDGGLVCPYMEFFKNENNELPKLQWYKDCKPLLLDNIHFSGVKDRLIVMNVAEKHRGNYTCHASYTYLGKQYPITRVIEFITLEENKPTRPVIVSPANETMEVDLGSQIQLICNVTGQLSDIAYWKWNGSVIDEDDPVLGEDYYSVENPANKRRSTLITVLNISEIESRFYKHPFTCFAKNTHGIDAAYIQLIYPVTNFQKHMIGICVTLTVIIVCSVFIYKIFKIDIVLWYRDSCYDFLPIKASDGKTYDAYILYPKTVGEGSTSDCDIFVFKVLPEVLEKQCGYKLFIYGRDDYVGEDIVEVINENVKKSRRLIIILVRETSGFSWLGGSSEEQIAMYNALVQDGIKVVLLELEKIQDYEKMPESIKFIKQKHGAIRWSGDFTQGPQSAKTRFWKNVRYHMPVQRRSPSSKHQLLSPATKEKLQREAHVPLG
Assay: radioligand binding; [125I]IL-1 alpha at increasing concentrations (direct) or at 80 pM with increasing unlabelled IL-1 alpha (competition) on subconfluent A-498 cells in 24-well plates; cells washed with binding medium pH 3.0 for 30 s beforehand; binding medium with 20 mM HEPES pH 7.0; 3 h at 4 C; Scatchard analysis, two classes of binding sites
Details: one partner purified

- KD of the high-affinity sites: 0.045 nM
- KD of the low-affinity sites: 1.3 nM
B1: [125I]IL-1 alpha (ligand, UniProt P01583 113-271, looked up)
chain: SAPFSFLSNVKYNFMRIIKYEFILNDALNQSIIRANDQYLTAAALHNLDEAVKFDMGAYKSSKDDAKITVILRISKTQLYVTAQDEDQPVLLKEMPEIPKTITGSETNLLFFWETHGTKNYFTSVAHPNLFIATKQDYWVCLAGGPPSITDFQILENQA
modifications: 125I label (radioiodinated)
notes: interleukin 1 alpha, the 17 kDa form as printed; also called radiolabelled interleukin 1 alpha; source: bought: Amersham-Buchler
